In paper PMC5798601 (Cell, 2017):

Columns and labels:
[1] = biological target: 32P-labeled mtRNAP (Figure 5C; truncation not stated) (human) (UniProt O00411); experiment: cross-linking
[2] = biological target: Δ150 mtRNAP (human mitochondrial RNA polymerase) (human, UniProt O00411 151-1230); experiment: crystal structure
crystal structure = biological target: the molecule itself; experiment: crystal structure
[3] = biological target: mtRNAP Δ150;TEFM Δ135 (CTD + linker) (human;human, UniProt O00411;Q96QE5 151-1230;136-360, |); experiment: crystal structure
mtRNAP Δ150;TEFM WT = mtRNAP Δ150;TEFM WT (human;human, UniProt O00411;Q96QE5 151-1230;36-360, |); experiment: size exclusion chromatography
610Bpa-mtRNAP (human) = 610Bpa-mtRNAP (human) (UniProt O00411); experiment: cross-linking
SEC = biological target: the molecule itself; experiment: SEC

Chain of 32P-labeled mtRNAP (Figure 5C; truncation not stated) (human) (O00411 42-1230): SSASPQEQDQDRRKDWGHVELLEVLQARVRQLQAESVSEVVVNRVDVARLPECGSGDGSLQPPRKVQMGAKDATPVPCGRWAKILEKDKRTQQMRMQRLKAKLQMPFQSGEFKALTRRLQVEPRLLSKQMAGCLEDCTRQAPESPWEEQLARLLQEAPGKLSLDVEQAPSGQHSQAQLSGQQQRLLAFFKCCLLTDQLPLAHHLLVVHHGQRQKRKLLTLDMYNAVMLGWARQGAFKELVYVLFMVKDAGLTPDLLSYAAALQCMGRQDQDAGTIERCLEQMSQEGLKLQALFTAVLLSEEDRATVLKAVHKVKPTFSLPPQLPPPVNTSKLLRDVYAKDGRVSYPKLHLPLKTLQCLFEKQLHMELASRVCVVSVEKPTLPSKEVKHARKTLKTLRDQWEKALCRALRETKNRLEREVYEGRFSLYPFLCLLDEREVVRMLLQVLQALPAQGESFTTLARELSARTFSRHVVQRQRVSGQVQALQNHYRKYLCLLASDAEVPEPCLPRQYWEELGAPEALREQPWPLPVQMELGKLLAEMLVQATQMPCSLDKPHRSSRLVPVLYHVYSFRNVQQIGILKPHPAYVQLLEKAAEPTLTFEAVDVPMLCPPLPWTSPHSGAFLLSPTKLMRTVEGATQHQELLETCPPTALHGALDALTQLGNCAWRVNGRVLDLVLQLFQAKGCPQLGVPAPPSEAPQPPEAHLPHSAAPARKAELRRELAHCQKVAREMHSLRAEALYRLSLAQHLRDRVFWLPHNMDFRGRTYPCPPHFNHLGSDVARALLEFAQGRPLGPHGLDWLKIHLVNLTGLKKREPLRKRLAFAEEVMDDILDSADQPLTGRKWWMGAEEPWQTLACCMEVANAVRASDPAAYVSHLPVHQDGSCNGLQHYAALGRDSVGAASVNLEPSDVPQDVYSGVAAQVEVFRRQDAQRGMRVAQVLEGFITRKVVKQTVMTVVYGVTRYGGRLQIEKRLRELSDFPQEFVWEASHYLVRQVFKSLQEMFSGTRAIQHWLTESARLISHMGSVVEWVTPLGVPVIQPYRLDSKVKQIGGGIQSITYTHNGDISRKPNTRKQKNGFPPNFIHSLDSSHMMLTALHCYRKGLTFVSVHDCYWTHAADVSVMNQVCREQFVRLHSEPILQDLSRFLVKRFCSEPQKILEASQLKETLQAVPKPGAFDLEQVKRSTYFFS
Chain of 610Bpa-mtRNAP (human) (O00411 42-609): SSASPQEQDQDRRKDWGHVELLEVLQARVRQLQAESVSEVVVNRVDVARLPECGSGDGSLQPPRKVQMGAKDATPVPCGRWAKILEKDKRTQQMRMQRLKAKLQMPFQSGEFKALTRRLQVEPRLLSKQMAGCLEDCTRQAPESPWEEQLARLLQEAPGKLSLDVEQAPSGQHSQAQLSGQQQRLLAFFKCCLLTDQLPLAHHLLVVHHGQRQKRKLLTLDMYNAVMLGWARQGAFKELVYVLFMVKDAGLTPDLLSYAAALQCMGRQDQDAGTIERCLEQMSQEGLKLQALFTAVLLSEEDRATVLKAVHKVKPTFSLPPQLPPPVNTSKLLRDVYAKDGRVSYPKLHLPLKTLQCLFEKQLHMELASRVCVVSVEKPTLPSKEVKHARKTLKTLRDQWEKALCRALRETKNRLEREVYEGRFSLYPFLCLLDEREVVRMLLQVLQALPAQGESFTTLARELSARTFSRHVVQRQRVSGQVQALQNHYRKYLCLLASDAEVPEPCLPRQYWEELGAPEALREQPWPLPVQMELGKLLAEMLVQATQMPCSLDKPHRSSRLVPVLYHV
Chain of mtRNAP Δ150;TEFM WT (O00411 151-1230, stated change not applied, one chain of several): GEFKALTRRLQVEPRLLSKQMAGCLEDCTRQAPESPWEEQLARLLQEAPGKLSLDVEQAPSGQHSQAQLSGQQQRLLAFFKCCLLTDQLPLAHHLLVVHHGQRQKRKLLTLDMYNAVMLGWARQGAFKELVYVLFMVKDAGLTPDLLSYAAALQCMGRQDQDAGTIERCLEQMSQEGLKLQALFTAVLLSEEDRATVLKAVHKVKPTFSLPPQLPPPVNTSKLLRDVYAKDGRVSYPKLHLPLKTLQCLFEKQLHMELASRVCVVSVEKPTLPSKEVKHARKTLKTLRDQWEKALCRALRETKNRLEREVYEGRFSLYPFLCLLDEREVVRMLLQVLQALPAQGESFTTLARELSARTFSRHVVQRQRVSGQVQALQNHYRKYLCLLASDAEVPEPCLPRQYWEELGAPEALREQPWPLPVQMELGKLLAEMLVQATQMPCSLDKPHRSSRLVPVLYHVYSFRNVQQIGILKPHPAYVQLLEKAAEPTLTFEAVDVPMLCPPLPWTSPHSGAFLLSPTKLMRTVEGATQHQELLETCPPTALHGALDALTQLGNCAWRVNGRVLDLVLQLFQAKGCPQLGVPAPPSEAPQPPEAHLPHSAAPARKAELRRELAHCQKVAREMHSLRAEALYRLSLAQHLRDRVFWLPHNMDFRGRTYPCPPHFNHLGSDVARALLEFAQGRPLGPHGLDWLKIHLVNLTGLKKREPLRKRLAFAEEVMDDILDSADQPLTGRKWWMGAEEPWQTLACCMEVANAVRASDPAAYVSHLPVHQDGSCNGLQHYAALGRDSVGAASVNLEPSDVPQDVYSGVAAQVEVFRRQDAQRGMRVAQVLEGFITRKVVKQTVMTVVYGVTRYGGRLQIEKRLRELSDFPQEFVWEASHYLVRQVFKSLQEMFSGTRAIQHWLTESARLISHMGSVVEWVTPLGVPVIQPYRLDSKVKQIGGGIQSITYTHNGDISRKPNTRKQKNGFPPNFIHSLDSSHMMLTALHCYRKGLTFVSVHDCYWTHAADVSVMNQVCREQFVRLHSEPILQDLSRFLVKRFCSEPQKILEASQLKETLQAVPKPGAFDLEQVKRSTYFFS
Chain of mtRNAP Δ150;TEFM Δ135 (CTD + linker) (O00411 151-1230, stated change not applied, one chain of several): as above
Chain of Δ150 mtRNAP (human mitochondrial RNA polymerase) (O00411 151-1230, stated change not applied): as the sequence (O00411 151-1230, stated change not applied, one chain of several) above

In the case of “Bpa312 TEFM (from UniProt Q96QE5 36-360) (natural protein)”, the cross-linking efficiency [1] is reported as > 30%.

For “Bpa309 TEFM (from UniProt Q96QE5 36-360) (natural protein)”, the cross-linking efficiency [1] was > 30%.

“Bpa310 TEFM (from UniProt Q96QE5 36-360) (natural protein)” was tested, and the cross-linking efficiency [1] was > 30%.

For “Bpa308 TEFM (from UniProt Q96QE5 36-360) (natural protein)”, the cross-linking efficiency [1] was > 30%.

B1: Δ135 TEFM (CTD with the inter-domain linker, residues 136-360) (domain or fragment, human, UniProt Q96QE5 136-360, looked up)
chain: PKTGREKRKSPENRFLRKLLKPDIERERLKAVNSIISIVFGTRRIAWAHLDRKLTVLDWQQSDRWSLMRGIYSSSVYLEEISSIISKMPKADFYVLEKTGLSIQNSSLFPILLHFHIMEAMLYALLNKTFAQDGQHQVLSMNRNAVGKHFELMIGDSRTSGKELVKQFLFDSILKADPRVFFPSDKIVHYRQMFLSTELQRVEELYDSLLQAIAFYELAVFDSQP
B1: binds [2]; binds (crystal structure).

B2: EC scaffold NT25HH/TS22HH/RNA14mt (mixed)
DNA 1: GAACATGGTGTAATTATTTCGACGCCAGACGAAC
DNA 2: GTTCGTCTGGCGTGCGCGCCGCTACACCATGTTC
RNA: AGUCUGCGGCGCGC
B2: binds [3].

B3: cross-linking scaffold NT19HH/TS16HH/RNA14HH (mixed)
DNA 1: CATGGGGTAACTAGTTCGACGCCAGACG
DNA 2: CGTCTGGCGTGATCACGACTACCCCATG
RNA: UGAUGGUAAUGCUCCUGUCGUGAUC
B3: binds (mtRNAP Δ150;TEFM WT).

B4: 32P-labeled TEFM (natural protein)
chain: KSTTPKKITPNVTFCDENAKEPENALDKLFSSEQQASILHVLNTASTKELEAFRLLRGRRSINIVEHRENFGPFQNLESLMNVPLFKYKSTVQVCNSILCPKTGREKRKSPENRFLRKLLKPDIERERLKAVNSIISIVFGTRRIAWAHLDRKLTVLDWQQSDRWSLMRGIYSSSVYLEEISSIISKMPKADFYVLEKTGLSIQNSSLFPILLHFHIMEAMLYALLNKTFAQDGQHQVLSMNRNAVGKHFELMIGDSRTSGKELVKQFLFDSILKADPRVFFPSDKIVHYRQMFLSTELQRVEELYDSLLQAIAFYELAVFDSQP
modifications: 32P-labeled
B4 gave a cross-linking efficiency (610Bpa-mtRNAP (human)) of 30%.

B5: WT TEFM (human mitochondrial transcription elongation factor) (natural protein, UniProt Q96QE5 36-360, looked up)
chain: KSTTPKKITPNVTFCDENAKEPENALDKLFSSEQQASILHVLNTASTKELEAFRLLRGRRSINIVEHRENFGPFQNLESLMNVPLFKYKSTVQVCNSILCPKTGREKRKSPENRFLRKLLKPDIERERLKAVNSIISIVFGTRRIAWAHLDRKLTVLDWQQSDRWSLMRGIYSSSVYLEEISSIISKMPKADFYVLEKTGLSIQNSSLFPILLHFHIMEAMLYALLNKTFAQDGQHQVLSMNRNAVGKHFELMIGDSRTSGKELVKQFLFDSILKADPRVFFPSDKIVHYRQMFLSTELQRVEELYDSLLQAIAFYELAVFDSQP
For B5, the “stoichiometry N” value (SEC) was 2.
